# Assay results as given in US6362163B1, “Parathyroid hormone-related peptide analogs” (The General Hospital Corporation, priority 1996, dated 2002).
# Where no end group is shown, it is not given here.
# T1: PTH/PTHrP receptor (Homo sapiens, UniProt Q03431)
# T1 construct: expressed in transfected cells; host or cells: COS-7 cells, transient transfection, vector pcDNA-1
# T1 sequence (Q03431 27-593): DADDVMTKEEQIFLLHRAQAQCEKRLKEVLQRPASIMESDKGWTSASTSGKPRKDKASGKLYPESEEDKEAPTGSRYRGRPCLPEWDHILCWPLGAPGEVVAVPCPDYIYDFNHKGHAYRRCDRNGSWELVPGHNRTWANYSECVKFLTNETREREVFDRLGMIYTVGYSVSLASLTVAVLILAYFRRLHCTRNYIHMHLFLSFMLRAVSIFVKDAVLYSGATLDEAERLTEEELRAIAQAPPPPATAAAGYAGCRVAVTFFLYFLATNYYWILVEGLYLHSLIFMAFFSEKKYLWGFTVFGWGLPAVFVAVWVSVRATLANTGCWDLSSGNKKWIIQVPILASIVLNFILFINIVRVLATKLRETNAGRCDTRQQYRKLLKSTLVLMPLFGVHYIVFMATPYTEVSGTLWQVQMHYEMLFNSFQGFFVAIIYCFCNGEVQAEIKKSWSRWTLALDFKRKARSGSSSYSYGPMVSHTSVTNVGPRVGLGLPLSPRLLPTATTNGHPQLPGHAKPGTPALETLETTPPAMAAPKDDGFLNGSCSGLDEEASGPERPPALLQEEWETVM
# T2: human PTH/PTHrP receptor (human, UniProt Q03431 27-593)
# T2 construct: whole, on cells; Transiently expressed on COS-7 cells
# T2 sequence (looked up): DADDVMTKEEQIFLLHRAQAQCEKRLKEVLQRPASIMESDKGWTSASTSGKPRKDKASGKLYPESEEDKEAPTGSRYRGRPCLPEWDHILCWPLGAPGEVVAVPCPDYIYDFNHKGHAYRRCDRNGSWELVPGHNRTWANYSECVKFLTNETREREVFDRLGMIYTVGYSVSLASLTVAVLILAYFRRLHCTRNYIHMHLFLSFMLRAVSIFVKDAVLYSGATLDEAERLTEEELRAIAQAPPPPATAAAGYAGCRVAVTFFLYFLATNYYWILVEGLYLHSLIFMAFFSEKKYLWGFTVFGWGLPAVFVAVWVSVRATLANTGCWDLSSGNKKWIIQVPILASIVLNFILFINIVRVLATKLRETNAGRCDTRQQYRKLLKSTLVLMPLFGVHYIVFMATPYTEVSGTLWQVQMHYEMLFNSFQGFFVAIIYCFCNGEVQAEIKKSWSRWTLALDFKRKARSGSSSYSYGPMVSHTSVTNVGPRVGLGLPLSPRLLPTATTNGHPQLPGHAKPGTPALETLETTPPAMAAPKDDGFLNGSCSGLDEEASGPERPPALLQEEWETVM
# B1: [Tyr^34]hPTH-(1-34)NH2 (peptide)
# peptide: SVSEIQLMHNLGKHLNSMERVEWLRKKLQDVHNY-NH2
# B2: [H5, Y34]hPTH-(1-34)NH2 (peptide)
# peptide: SVSEHQLMHNLGKHLNSMERVEWLRKKLQDVHNY-NH2
# B3: [H5, F23, Y34]hPTH-(1-34)NH2 (peptide)
# peptide: SVSEHQLMHNLGKHLNSMERVEFLRKKLQDVHNY-NH2
# B4: [I5, W23, Y36]hPTHrP-(1-36)NH2 (peptide)
# peptide: AVSEIQLLHDKGKSIQDLRRRFWLHHLIAEIHTAEY-NH2
# notes: also called [Ile^5, Trp^23]PTHrP-(1-36); [Ile^5,Trp^32]PTHrP-(1-36) [sic]
# B5: [I5, Y36]hPTHrP-(1-36)NH2 (peptide)
# peptide: AVSEIQLLHDKGKSIQDLRRRFFLHHLIAEIHTAEY-NH2
# B6: Hybrid-4 hPTHrP-(1-21)/[Y34]hPTH-(22-34)NH2 (peptide)
# peptide: AVSEHQLLHDKGKSIQDLRRREWLRKKLQDVHNY-NH2
# B7: Hybrid-5 hPTHrP-(1-18)/[Y34]hPTH-(19-34)NH2 (peptide)
# peptide: AVSEHQLLHDKGKSIQDLERVEWLRKKLQDVHNY-NH2
# modifications: also: radioiodinated in direct binding test
# notes: Synthetic PTH/PTHrP hybrid ligand; also called radioiodinated hybrid-5 peptide
# B8: Hybrid-3 hPTHrP-(1-23)/[Y34]hPTH-(24-34)NH2 (peptide)
# peptide: AVSEHQLLHDKGKSIQDLRRRFFLRKKLQDVHNY-NH2
# notes: Synthetic PTH/PTHrP hybrid ligand; also called PTHrP-(1-23)/PTH-(24-34)
# B9: [W23, Y36]hPTHrP-(15-36)NH2 (peptide)
# peptide: IQDLRRRFWLHHLIAEIHTAEY-NH2
# B10: [E22, W23, Y36]hPTHrP-(15-36)NH2 (peptide)
# peptide: IQDLRRREWLHHLIAEIHTAEY-NH2
# B11: [Y36]hPTHrP-(15-36)NH2 (peptide)
# peptide: IQDLRRRFFLHHLIAEIHTAEY-NH2
# B12: Hybrid-1 hPTHrP-(1-14)/[Y34]hPTH-(15-34)NH2 (peptide)
# peptide: AVSEHQLLHDKGKSLNSMERVEWLRKKLQDVHNY-NH2
# What was measured:
# PTH-2 receptor = molecular target: T3, PTH-2 receptor (Homo sapiens, UniProt P49190); experiment: Ligand-induced intracellular cAMP accumulation, COS-7 cells expressing human PTH-2 receptor; format: cell-based; conditions: highest level of cAMP attained; basal 5.4 ± 0.3 not subtracted; 1h at room temperature
# T3 construct: expressed in transfected cells; host or cells: COS-7 cells, transient transfection, vector pcDNAI/Amp
# T3 sequence (P49190 25-550): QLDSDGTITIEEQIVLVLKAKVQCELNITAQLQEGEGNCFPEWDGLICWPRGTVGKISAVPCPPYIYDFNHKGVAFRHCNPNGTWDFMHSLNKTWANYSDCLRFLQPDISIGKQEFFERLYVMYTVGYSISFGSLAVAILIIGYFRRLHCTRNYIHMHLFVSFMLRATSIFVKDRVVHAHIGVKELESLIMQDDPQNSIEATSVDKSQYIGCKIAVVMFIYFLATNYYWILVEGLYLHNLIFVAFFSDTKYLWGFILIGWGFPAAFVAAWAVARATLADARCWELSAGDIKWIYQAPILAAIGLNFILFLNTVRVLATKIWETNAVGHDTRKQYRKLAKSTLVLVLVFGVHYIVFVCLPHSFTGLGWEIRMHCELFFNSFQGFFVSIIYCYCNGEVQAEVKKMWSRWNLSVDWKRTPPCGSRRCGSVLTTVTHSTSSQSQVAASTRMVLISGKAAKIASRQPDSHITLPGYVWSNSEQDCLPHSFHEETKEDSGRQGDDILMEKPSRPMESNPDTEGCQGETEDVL
# Description: (§1) The cDNAs encoding the human PTH/PTHrP receptor (Schipani, E. et al., Endocrinology 132:2157-2165 (1993)) and the human PTH-2 receptor (Usdin, T. et al., J. Biol. Chem. 270:15455-15458 (1995)) were carried on the expression vectors pcDNA-1 and pcDNAI/Amp (InVitrogen, San Diego, Calif.), respectively. COS-7 cells were cultured and transfected as described previously (Lee, C. et al., Mol. Endocrinol. 9:1269-1278 (1995)). Cells were transfected in 24-well plates using plasmid DNA (200 ng/well) purified by cesium chloride/ethidium bromide gradient centrifugation. Ligand binding and cAMP accumulation assays were performed three days after transfection, by which time the cell density reached 500,000±100,000 cells/well.
# (§2) Transfected COS-7 cells were rinsed with […] of binding buffer. 200 μl of IBMX buffer (DMEM containing 2 mM IBMX, 1 mg/ml bovine serum albumin, 35 mM Hepes-NaOH, pH 7.4) and […] of binding buffer or binding buffer containing various amounts of a PTH or PTHrP analog were then added. The plates were incubated for 60 minutes at room temperature. The buffer was then withdrawn and the cells lysed by placing the plates on powdered dry ice and adding 0.5 ml of 50 mM HCl. The acid lysate was diluted 1/30 in dH2O, and an aliquot (5-50 μl) analyzed for cAMP content by radioimmunoassay. […] The cells were then incubated for 30 minutes at room temperature, and the resulting intracellular cAMP was measured by RIA. Data were analyzed using the AssayZap software (Elsevier Science Publishers BV, Cambridge, United Kingdom).
# PTH/PTHrP receptor = molecular target: T1, PTH/PTHrP receptor; experiment: Ligand-induced intracellular cAMP accumulation, COS-7 cells expressing human PTH/PTHrP receptor; format: cell-based; conditions: highest level of cAMP attained; basal 4.6 ± 0.2 not subtracted; 1h at room temperature
# Description: as §1, §2
# human PTH-2 receptor [1] = molecular target: T4, human PTH-2 receptor (human, UniProt P49190 25-550); experiment: cell-based or functional assay
# T4 sequence (P49190 25-550): as above
# human PTH-2 receptor [2] = molecular target: T4, human PTH-2 receptor; experiment: radioligand competition (tracer 125I-[Nle8,21,Tyr34]rPTH-(1-34)NH2) on transfected COS-7 cells, RT 2 h
# Description: (§3) Assays were performed for 2 hours at room temperature. Data are the mean (± s.e.m.) of IC$50$ values obtained from the number of experiments indicated (n).
# (§4) Binding reactions were performed as described previously. Id. […] Incubations were at room temperature for 2 hours, except for experiments involving Scatchard analysis, which were performed at 4° C. for 6 hours. At the end of the binding reaction, the cells were rinsed 3 times with 0.5 ml of binding buffer, lysed with 0.5 ml of 5M NaOH, and the entire lysate was counted. […] Estimates of the number of receptors/cell derived from these studies assumed a single class of binding sites and a transfection efficiency of 20% (Abou-Samra, A. B. et al., *Proc. Natl. Acad. Sci* (*USA*) 89:2732–2736 (1992)).
# human PTH/PTHrP receptor = molecular target: T2, human PTH/PTHrP receptor; experiment: as above
# Description: as §3, §4
Molecule,cAMP accumulation EC50 (human PTH-2 receptor [1]) [nM],cAMP accumulation Maximum (human PTH-2 receptor [1]) [pmoles/well],IC50 (human PTH/PTHrP receptor) [nM],further results
hPTHrP-(1-23)/[Y34]hPTH-(24-34)NH2 [Hybrid 3],,,,"cAMP accumulation Maximum, PTH-2 receptor (PTH-2 receptor): 11 ± 1 pmoles/well; cAMP accumulation Maximum, PTH/PTHrP receptor (PTH/PTHrP receptor): 95 ± 9 pmoles/well"
B1,0.6,81,,
B2,> 1000,10,,
B3,> 1000,7.1,,
B4,0.5,65,,IC50 (human PTH-2 receptor [2]): 10 nM
B5,7,80,,
B6,> 1000,6.7,,
B7,> 1000,6.2,,IC50 (human PTH-2 receptor [2]): 500 nM
B8,> 1000,11,1000,
B9,,,> 10000,
B10,,,> 10000,
B11,,,> 10000,
B12,> 1000,5.3,,
